Laboratory results reported in doi:10.1101/2022.10.11.511805 (bioRxiv, 2022).

B1: REGN3470 Fab (Fab, V domains shown)
VH: QVQLVESGGGVVQPGRSLRLSCAASGFTFNNYGMHWVRQAPGMGLEWVAVIWHDGSDKYYADSVKGRFTISRDNSKNTLYLQMNSLRAEDTAVYYCARNWNLFDYWGQGTLVTVSS
VL: DIQMTQSPSSLSASVGDRITITCRASQSISTYLHWYQQKPGKAPKLLIYAASTLQSGVPSRFSGSGSGTDFTLTISSLQPEDFATYYCQQSFSTPPINFGQGTKLEIK
B2: REGN3479 (maftivimab) (antibody, V domains shown)
VH: EVQLVESGGGLVQPGGSLRLSCAASGFTSSSYAMNWVRQAPGKGLEWVSTISGMGGSTYYADSVKGRFTISRDNSKNTLYLQMNSLRAEDTAVYYCAKRGYPHSFDIWGQGTMVTVSS
VL: not shown
B3: REGN3471 (odesivimab) (antibody, V domains shown)
VH: EVQLVESGGGLVQPGGSLRLSCAASGFTFSSYDMHWVRQATGKGLEWVSAIGTAGDTYYPGSVKGRFTISRENAKNSLYLQMNSLRAGDTAVYYCARTWFGELYFDYWGQGTLVTVSS
VL: not shown

Experiments:
[1] = biological target: T1, cleaved GP (GPCL): EBOV GP treated with thermolysin, glycan cap removed (Zaire ebolavirus, Mayinga-76, UniProt Q05320); assay: SEC
Target sequence in this assay (Q05320 33-501, chain 1 of 2): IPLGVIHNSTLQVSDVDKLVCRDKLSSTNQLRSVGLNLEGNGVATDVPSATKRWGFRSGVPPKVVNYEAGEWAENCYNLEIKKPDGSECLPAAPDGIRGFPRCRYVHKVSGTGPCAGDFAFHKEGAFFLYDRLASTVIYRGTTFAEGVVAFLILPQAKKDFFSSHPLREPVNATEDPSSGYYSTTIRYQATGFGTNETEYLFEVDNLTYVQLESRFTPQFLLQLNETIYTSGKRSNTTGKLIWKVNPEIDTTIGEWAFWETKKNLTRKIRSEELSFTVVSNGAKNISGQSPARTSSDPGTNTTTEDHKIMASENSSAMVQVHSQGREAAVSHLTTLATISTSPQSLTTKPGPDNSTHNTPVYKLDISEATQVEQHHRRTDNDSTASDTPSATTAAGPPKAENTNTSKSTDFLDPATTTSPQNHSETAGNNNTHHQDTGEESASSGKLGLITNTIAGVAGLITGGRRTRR
Target sequence in this assay (Q05320 33-650, chain 2 of 2): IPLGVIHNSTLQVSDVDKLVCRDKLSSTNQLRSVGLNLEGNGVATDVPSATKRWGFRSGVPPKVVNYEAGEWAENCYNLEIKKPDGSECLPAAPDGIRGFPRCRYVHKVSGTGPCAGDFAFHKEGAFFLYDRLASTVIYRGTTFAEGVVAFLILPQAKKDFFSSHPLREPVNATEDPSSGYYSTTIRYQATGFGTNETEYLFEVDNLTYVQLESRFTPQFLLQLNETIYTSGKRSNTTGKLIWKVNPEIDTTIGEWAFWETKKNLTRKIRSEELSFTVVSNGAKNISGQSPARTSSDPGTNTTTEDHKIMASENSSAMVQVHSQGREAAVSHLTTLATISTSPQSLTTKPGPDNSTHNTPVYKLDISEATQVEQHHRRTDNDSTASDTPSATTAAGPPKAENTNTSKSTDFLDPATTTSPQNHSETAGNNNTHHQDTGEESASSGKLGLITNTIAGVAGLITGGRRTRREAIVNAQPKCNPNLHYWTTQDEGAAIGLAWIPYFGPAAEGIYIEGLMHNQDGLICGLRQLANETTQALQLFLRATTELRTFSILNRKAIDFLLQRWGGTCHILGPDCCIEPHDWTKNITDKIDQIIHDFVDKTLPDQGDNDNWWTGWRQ

[2] = biological target: T1, cleaved GP (GPCL): EBOV GP treated with …; assay: SPR

Binder | binding result [1] | Kd [2] | fold reduction of the binding half-life relative to GP [2]
B1 | no binding |  | 
B2 |  | 0.14 nM | 
B3 |  | 15.8 nM | 4 fold
